According to US20050095674A1, “Cannabinoid receptor interacting proteins and methods of use” (priority 2003, published 2005):

What was measured:
[1] = target: rat CB1 cannabinoid receptor, wild type (rat) (UniProt P20272); assay: cell-based or functional assay
[2] = target: T1, amino acids at positions 418-472 of the human cannabinoid receptor (CB1) fused to the GALA DNA binding domain (human, UniProt P04386 1-147; P21554 418-472); assay: yeast two-hybrid, beta-galactosidase colour
T1 construct: Yeast two-hybrid bait in Y190 cells; also called bait plasmid

[3] = target: T2, GST alone coupled to Glutathione Sepharose-4B (UniProt P08515 1-218 = GST); assay: affinity chromatography on Glutathione Sepharose-4B, SDS-PAGE and S-tag Western blot
T2 construct: the lane descriptions speak of glutathione Sepharose only; also called GST column; glutathione sepharose only column

[4] = target: T3, C-terminus (amino acids 418-472) of the CB1 cannabinoid receptor (Homo sapiens, UniProt P21554); assay: Yeast two hybrid, domains of CRIP1b against the CB1 C-terminus; type: binding; details: CRIP1b parts tested alone and in combination
T3 construct: expressed in transfected cells; host or cells: Y190 yeast cells
Description: A human brain cDNA library (Clontech) containing 5×10^6 independent clones with an average insert size of 1.5 kb fused to the GALA activation domain was cotransformed into Y 190 yeast cells with a bait plasmid consisting of the amino acids at positions 418-472 of the human cannabinoid receptor (CB1) fused to the GALA DNA binding domain. An overnight culture of Y190 cells was diluted to an OD600 of 0.08 (20 ml/reaction) and incubated at 30° C. until an OD600 of 0.2-0.4. The cells were washed in […] of water and resuspended in […] of 100 mM LiAc, 10 mM Tris-HCl, pH 7.5, and 1 mM EDTA (LiAc/TE). Single stranded herring testis DNA (200 μg), 20 μg of bait plasmid, 20 μg of carrier plasmid, and 1.2 ml of 40% polyethyleneglycol/LiAc/TE were added to the cells, followed by incubation at 30° C. for 30 minutes at 225 rpm. […] After incubation of the plates at 30° C. for 3-5 days, β-galactosidase activity of the colonies was assessed by lifting colonies onto filters, lysing the colonies by freezing in liquid nitrogen, and exposing the filters to 20 mg/ml X-gal in phospate-containing buffer.
To determine which domains of CRIP1b interact with the C-terminus (amino acids 418-472) of the CB1 cannabinoid receptor, yeast two hybrid experiments were performed. […] When each exon was tested alone, no interaction was detected (FIGS. 5A, 5C, and 5E). […]

[5] = target: T4, C-terminal tail of CB1 (amino acids 464-473 of rat CB1) (Rattus norvegicus, UniProt P20272); assay: Yeast two-hybrid, CB1 receptor interaction site with CRIP1b; type: binding
T4 construct: C-terminal tail of CB1 (amino acids 464-473 of rat CB1); expressed in transfected cells; host or cells: yeast (strain not restated for this experiment)
Text: The yeast two-hybrid technique was used to determine the CB1 receptor interaction site with CRIP1b. The C-terminus of the CB1 receptor contains separate domains critical for desensitization and internalization (Hsieh et al., 1999; Jin et al., 1999).

GST-CB1 (418-472) = target: T5, GST-CB1 (418-472) (Homo sapiens, UniProt P21554); assay: In vitro pull-down assay (GST affinity chromatography) of bacterially expressed proteins; type: binding
T5 construct: encoding amino acids at position 418-472 of the CB1 receptor into the pGEX-4T-1 expression vector; made in house; host or cells: bacteria; BL21(DE3) E. coli is stated for CRIP1b only
Description: To confirm the interaction between the CB1 cannabinoid receptor and the interacting protein CRIP1b, in vitro pull-down assays of bacterially expressed proteins were performed. A GST fusion peptide was created between GST and a peptide of the CB1 receptor by cloning the polynucleotide sequence encoding amino acids at position 418-472 of the CB1 receptor into the pGEX-4T-1 expression vector. This GST fusion peptide was expressed and purified using standard protocols. GST alone and purified GST/CB1 fusion peptide were coupled to a first and second Glutathione Sepharose-4B column, respectively, as per standard protocols (Smith and Johnson, 1988, Gene, 67:31-40).
Polymerase chain reaction (PCR) was used to amplify the amino acids at positions 34-128 of CRIP1b in the pCT2 shuttle vector with EcoRI and XhoI restriction endonuclease sites. The PCR product was inserted in-frame into a pET30C expression plasmid harboring an S-tag (Novagen, Wis.). The resulting plasmid was transformed into BL21(DE3) E. coli cells, and these cells were induced to express CRIP1b by the introduction of isopropyl β-D-thiogalactopyranoside.
The bacteria were lysed in a buffer containing 50 mM Tris-Cl (pH 8.0), 1 mM EDTA, 100 mM NaCl, phenylmethylsulfonylfluoride (PMSF) (8 μl of 50 mM PMSF per gram of bacterial pellet). […]

[6] = target: T6, CB1-464 truncated receptor (Rattus norvegicus, UniProt P20272); assay: Whole-cell patch clamp of Ca2+ currents in SCG neurons expressing the CB1-464 truncated receptor; type: cell-based; details: coexpression of CRIP1a with CB1-464 truncated receptor
T6 construct: expressed in transfected cells

CB1 receptors = target: T7, CB1 receptors (Rattus norvegicus, UniProt P20272); assay: Whole-cell patch clamp of Ca2+ currents in SCG neurons microinjected with rCB1 and rat CRIP1a; type: cell-based
T7 construct: expressed in transfected cells
T7 sequence (P20272 whole entry): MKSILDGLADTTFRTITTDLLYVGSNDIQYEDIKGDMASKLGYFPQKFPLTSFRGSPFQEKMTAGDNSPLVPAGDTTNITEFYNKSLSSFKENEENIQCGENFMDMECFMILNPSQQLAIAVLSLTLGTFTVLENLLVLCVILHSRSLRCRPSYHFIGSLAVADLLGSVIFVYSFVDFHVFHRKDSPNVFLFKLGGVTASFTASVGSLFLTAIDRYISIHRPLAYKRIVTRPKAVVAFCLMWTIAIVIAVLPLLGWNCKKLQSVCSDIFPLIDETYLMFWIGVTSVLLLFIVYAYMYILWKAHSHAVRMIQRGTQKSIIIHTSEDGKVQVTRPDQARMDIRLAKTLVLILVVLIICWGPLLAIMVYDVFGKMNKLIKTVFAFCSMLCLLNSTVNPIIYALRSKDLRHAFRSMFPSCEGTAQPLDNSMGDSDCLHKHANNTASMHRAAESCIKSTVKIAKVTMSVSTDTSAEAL

T3 sequence (P21554 418-472): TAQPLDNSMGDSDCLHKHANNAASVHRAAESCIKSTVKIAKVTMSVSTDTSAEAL
T5 sequence (P21554 418-472): as above
T6 sequence (P20272 1-464 limits assumed): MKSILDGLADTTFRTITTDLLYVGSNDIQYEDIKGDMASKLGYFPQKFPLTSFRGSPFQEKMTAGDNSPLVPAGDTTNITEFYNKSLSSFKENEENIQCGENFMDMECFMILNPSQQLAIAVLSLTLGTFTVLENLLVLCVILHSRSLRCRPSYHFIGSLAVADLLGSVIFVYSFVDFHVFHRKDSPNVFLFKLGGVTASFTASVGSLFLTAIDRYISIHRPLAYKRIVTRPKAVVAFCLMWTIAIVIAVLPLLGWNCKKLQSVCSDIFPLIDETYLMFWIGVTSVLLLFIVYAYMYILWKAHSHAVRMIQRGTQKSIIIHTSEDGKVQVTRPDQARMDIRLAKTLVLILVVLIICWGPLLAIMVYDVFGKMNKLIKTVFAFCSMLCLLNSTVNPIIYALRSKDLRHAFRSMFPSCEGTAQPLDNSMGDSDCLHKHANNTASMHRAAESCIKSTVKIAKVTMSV
T2 sequence (P08515 whole entry): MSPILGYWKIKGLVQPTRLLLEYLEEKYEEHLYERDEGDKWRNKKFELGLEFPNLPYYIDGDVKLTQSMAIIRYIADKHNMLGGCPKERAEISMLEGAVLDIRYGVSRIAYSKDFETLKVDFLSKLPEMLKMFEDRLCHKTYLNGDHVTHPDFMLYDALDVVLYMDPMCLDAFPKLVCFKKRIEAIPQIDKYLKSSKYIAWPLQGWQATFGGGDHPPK

rat CRIP1a (from UniProt Q5M7A7 1-164)
Ca^2+ current facilitation ratio [1]: 1.26

NISIGGVLVPLELKSKEPDGDRVVYTGTYDTEGVTPTKSGERQPIQITMP (other, not shown: large carriers, Yeast two-hybrid construct) [CRIP1b exon 2 (amino acids 61-110 of SEQ ID NO:2)]
binding result [2]: no binding

B1: S-tagged CRIP1b (amino acids at positions 34-128) expressed from pET30C in BL21(DE3) E. coli (other)
chain: QNRTIKLLTGSSYKVEVKIKPSTLQVENISIGGVLVPLELKSKEPDGDRVVYTGTYDTEGVTPTKSGERQPIQITMPECLEQRPQEISLTYECEE
notes: also called CB1-IP1; CRIP1b lysate; not shown: vector-encoded leader of pET30C with the S-tag
binding result [3]: no binding
interaction in yeast two hybrid [4]: enhanced

B2: CRIP1b exon 1 and exon 2: Exon 1 (amino acids 34-60 of SEQ ID NO:2) and exon 2 (amino acids 61-110) in combination (protein, listed as Homo sapiens)
chain: QNRTIKLLTGSSYKVEVKIKPSTLQVENISIGGVLVPLELKSKEPDGDRVVYTGTYDTEGVTPTKSGERQPIQITMP
interaction in yeast two hybrid [4]: positive interaction

B3: CRIP1b: CB1 Receptor Interacting Protein 1b, 128 amino acid human polypeptide, SEQ ID NO:2; amino acids 34-128 used in pull-down (protein, listed as Homo sapiens)
chain: MGDLPGLVRLSIALRTQPNDGPVFYKVDGQRFGQNRTIKLLTGSSYKVEVKIKPSTLQVENISIGGVLVPLELKSKEPDGDRVVYTGTYDTEGVTPTKSGERQPIQITMPECLEQRPQEISLTYECEE
interaction in yeast two-hybrid with the most distal 9 amino acids of the CB1 receptor ([5]; minimal CB1 domain tested): strong interaction
interaction in yeast two-hybrid with the CB1 desensitization and internalization domains ([5]; separate C-terminal domains of CB1): neither of these domains interacted strongly
pull-down by GST-CB1 (418-472) on glutathione-Sepharose 4B (GST-CB1 (418-472); S-tagged CRIP1b (amino acids 34-128) bacterial lysate): pulled down
binding to glutathione Sepharose-4B matrix without CB1 fragment (control) (GST-CB1 (418-472); S-tagged CRIP1b bacterial lysate): did not bind to glutathione Sepharose-4B on its own

B4: CRIP1a: CB1 receptor interacting protein 1a cloned from rat brain cDNA, 164 amino acids, SEQ ID NO:7 (protein, listed as Rattus sp.)
chain: MGDLPGIVRLSIALRIQPNDGPVFFKVDGQRFGQNRTIKLLTGSSYKVEVKIKPTTLQVENISIGGVLVPLELKCKEPDGERVVYTGIYDTEGVAPTKSGERQPIQITMPFTDIGTFETVWQVKFYNYHKRDHCQWGSPFSVIEYECKPNETRSLMWVNKESFL
effect on SR141716-induced increase of Ca2+ current [6]: did not significantly inhibit effect of SR141716
Ca2+ current facilitation ratio (CB1 receptors; SCG neurons expressing CB1 receptors co-expressed with CRIP1a, 1.46±0.08 with CB1 alone): 1.26±0.03
effect on agonist-induced (WIN55,212-2) inhibition of the Ca2+ current (CB1 receptors; SCG neurons expressing both CB1 and CRIP1a): had no effect on the agonist-induced inhibition of the Ca^2+ current
effect on SR141716-induced increase of Ca2+ current (constitutive activity of CB1) (CB1 receptors; co-expression of CRIP1a with CB1 receptors in SCG neurons): significantly inhibited the effect of SR141716
effect on SR141716-induced increase of Ca2+ current (CB1 receptors; expression of CRIP1a alone, without CB1): had no effect
